Source: article PMC2413427, “Free Brick1 Is a Trimeric Precursor in the Assembly of a Functional Wave Complex” (PLoS ONE, 2008)

Tests used:
[1] = target: human Brk1, in vitro translated, N-terminally tagged (PC-Brk1; the other copies in the self-association experiments are SBP-, Flag- or HA-Brk1) (human) (UniProt Q8WUW1); test: co-IP; PC-Brk1, SBP-Brk1 and HA-Wave2 co-translated in vitro; PC immunoprecipitation, then SBP precipitation or HA immunoprecipitation as a second step
[2] = target: the molecule itself; test: cross-linking; pooled SEC fractions of partially purified free untagged Brk1; glutaraldehyde 0.2% final or 2-fold dilutions, 50 mM Tris pH 8.0, 10 min, room temperature; Brk1 western blot
[3] = target: the molecule itself; test: co-IP; PC-, SBP-, Flag- and HA-Brk1 co-produced by in vitro translation with 35S-methionine; three sequential native precipitations (PC eluted with EDTA, SBP on streptavidin eluted with biotin, then Flag or HA); autoradiography

Work on “HA-Wave2, in vitro translated (from UniProt Q9Y6W5 1-498) (natural protein)” yielded a stoichiometry N [1] of 1.

B1: untagged Brk1 (free Brk1), partially purified from transfected 293T cells (natural protein, human, UniProt Q8WUW1 1-75, looked up)
chain: MAGQEDPVQREIHQDWANREYIEIITSSIKKIADFLNSFDMSCRSRLATLNEKLTALERRIEYIEARVTKGETLT
notes: Brick1 (Brk1, Hspc300), human, untagged cDNA; printed mass 8.7 kDa; that is not this construct; The fraction holds many other proteins but no Wave complex; also called Brick1; Hspc300; source: 293T, transfected with pCS2-Brk1, partially purified (35%-55% ammonium sulfate cut, SEC on superdex-200)
For B1, the “stoichiometry N” value [2] was 3.

B2: human Brk1, in vitro translated, N-terminally tagged (PC-Brk1; the other copies in the self-association experiments are SBP-, Flag- or HA-Brk1) (natural protein, UniProt Q8WUW1 1-75, looked up)
chain: B1 chain
notes: Brick1 (Brk1, Hspc300), human; One molecule stands for the differently tagged copies of human Brk1 that were co-translated; also called SBP-Brk1; Flag-Brk1; source: in vitro translated (TnT, rabbit reticulocyte lysate, 35S-methionine), pCS2 plasmid; not shown: PC, N-terminal, kept
B2 was tested, and the “stoichiometry N” value [3] was 3.
